B1: ACSBG2 (parent)
chain: FAQADALKGTLVSTLKEVKPTVFI

Variants of: B1
Assay: protein stability index of a GFP-peptide fusion (GPS, HEK-293T) (PSI 1-6); higher = more stable
Details: c terminus: a fixed tail appended
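Note: lentivirally expressed fusions sorted by FACS into six bins by GFP to DsRed ratio, PSI derived from sequencing read proportions per bin multiplied by bin number.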

Row | Variant | protein stability index
1 | FAQADALKGALVSTLKEVKPTVFI | 2.04
2 | FAQADALKGSLVSTLKEVKPTVFI | 1.55
3 | FAQADALKGHLVSTLKEVKPTVFI | 2.91
4 | FAQADALKGNLVSTLKEVKPTVFI | 1.61
5 | FAQADALKGFLVSTLKEVKPTVFI | 2.23
6 | FAQADALKGCLVSTLKEVKPTVFI | 1.81
7 | FAQADALKGYLVSTLKEVKPTVFI | 3.48
8 | FAQADALKGELVSTLKEVKPTVFI | 1.65
9 | FAQADALKGGLVSTLKEVKPTVFI | 1.46
10 | FAQADALKGMLVSTLKEVKPTVFI | 2.76
11 | FAQADALKGPLVSTLKEVKPTVFI | 1.14
12 | FAQADALKGRLVSTLKEVKPTVFI | 2.62
13 | FAQADALKGWLVSTLKEVKPTVFI | 2.36
14 | FAQADALKGILVSTLKEVKPTVFI | 2.96
15 | FAQADALKGVLVSTLKEVKPTVFI | 2.24
16 | FAQADALKGQLVSTLKEVKPTVFI | 1.79
17 | FAQADALKGKLVSTLKEVKPTVFI | 1.98
18 | FAQADALKGDLVSTLKEVKPTVFI | 2.07
19 | FANADALKGTLVSTLKEVKPTVFI | 3.49
20 | FAGADALKGTLVSTLKEVKPTVFI | 3.16
21 | FASADALKGTLVSTLKEVKPTVFI | 1.28
22 | FAKADALKGTLVSTLKEVKPTVFI | 2.06
23 | FAMADALKGTLVSTLKEVKPTVFI | 3.51
24 | FADADALKGTLVSTLKEVKPTVFI | 1.36

Row | Variant | protein stability index
25 | FAYADALKGTLVSTLKEVKPTVFI | 1.45
26 | FACADALKGTLVSTLKEVKPTVFI | 1.4
27 | FAEADALKGTLVSTLKEVKPTVFI | 1.74
28 | FATADALKGTLVSTLKEVKPTVFI | 1.8
29 | FAAADALKGTLVSTLKEVKPTVFI | 1.86
30 | FAWADALKGTLVSTLKEVKPTVFI | 2.13
31 | FARADALKGTLVSTLKEVKPTVFI | 2.92
32 | FALADALKGTLVSTLKEVKPTVFI | 2.44
33 | FAFADALKGTLVSTLKEVKPTVFI | 3.71
34 | FAIADALKGTLVSTLKEVKPTVFI | 4.29
35 | FAVADALKGTLVSTLKEVKPTVFI | 3.21
36 | FAQADACKGTLVSTLKEVKPTVFI | 1.52
37 | FAQADAGKGTLVSTLKEVKPTVFI | 1.3
38 | FAQADAPKGTLVSTLKEVKPTVFI | 2.05
39 | FAQADARKGTLVSTLKEVKPTVFI | 2.07
40 | FAQADAVKGTLVSTLKEVKPTVFI | 1.91
41 | FAQADAQKGTLVSTLKEVKPTVFI | 2.11
42 | FAQADAFKGTLVSTLKEVKPTVFI | 3.08
43 | FAQADAIKGTLVSTLKEVKPTVFI | 1.86
44 | FAQADAHKGTLVSTLKEVKPTVFI | 2.16
45 | FAQADAAKGTLVSTLKEVKPTVFI | 2.1
46 | FAQADATKGTLVSTLKEVKPTVFI | 2.02
47 | FAQADASKGTLVSTLKEVKPTVFI | 1.67
48 | FAQADAEKGTLVSTLKEVKPTVFI | 2.5

Row | Variant | protein stability index
49 | FAQADADKGTLVSTLKEVKPTVFI | 2.12
50 | FAQADANKGTLVSTLKEVKPTVFI | 1.73
51 | FAQADAKKGTLVSTLKEVKPTVFI | 2.37
52 | FAQADAMKGTLVSTLKEVKPTVFI | 2.73
53 | FAQADFLKGTLVSTLKEVKPTVFI | 2.84
54 | FAQADVLKGTLVSTLKEVKPTVFI | 2.58
55 | FAQADILKGTLVSTLKEVKPTVFI | 1.34
56 | FAQADSLKGTLVSTLKEVKPTVFI | 2.08
57 | FAQADHLKGTLVSTLKEVKPTVFI | 1.61
58 | FAQADTLKGTLVSTLKEVKPTVFI | 2.21
59 | FAQADRLKGTLVSTLKEVKPTVFI | 1.67
60 | FAQADGLKGTLVSTLKEVKPTVFI | 1.57
61 | FAQADELKGTLVSTLKEVKPTVFI | 1.95
62 | FAQADWLKGTLVSTLKEVKPTVFI | 3.31
63 | FAQADQLKGTLVSTLKEVKPTVFI | 1.54
64 | FAQADNLKGTLVSTLKEVKPTVFI | 1.58
65 | FAQADMLKGTLVSTLKEVKPTVFI | 1.9
66 | FAQADYLKGTLVSTLKEVKPTVFI | 3.07
67 | FAQADPLKGTLVSTLKEVKPTVFI | 1.69
68 | FAQADDLKGTLVSTLKEVKPTVFI | 1.71
69 | FAQADKLKGTLVSTLKEVKPTVFI | 2.23
70 | FAQADCLKGTLVSTLKEVKPTVFI | 1.28
71 | FAQADALKQTLVSTLKEVKPTVFI | 2.52
72 | FAQADALKFTLVSTLKEVKPTVFI | 2.24

Row | Variant | protein stability index
73 | FAQADALKMTLVSTLKEVKPTVFI | 2.03
74 | FAQADALKHTLVSTLKEVKPTVFI | 1.55
75 | FAQADALKLTLVSTLKEVKPTVFI | 2.72
76 | FAQADALKCTLVSTLKEVKPTVFI | 2.73
77 | FAQADALKTTLVSTLKEVKPTVFI | 1.38
78 | FAQADALKETLVSTLKEVKPTVFI | 1.5
79 | FAQADALKPTLVSTLKEVKPTVFI | 2.01
80 | FAQADALKYTLVSTLKEVKPTVFI | 1.78
81 | FAQADALKATLVSTLKEVKPTVFI | 2.24
82 | FAQADALKWTLVSTLKEVKPTVFI | 3.93
83 | FAQADALKKTLVSTLKEVKPTVFI | 2.32
84 | FAQADALKITLVSTLKEVKPTVFI | 4.73
85 | FAQADALKRTLVSTLKEVKPTVFI | 2.76
86 | FAQADALKDTLVSTLKEVKPTVFI | 1.59
87 | FAQADALKNTLVSTLKEVKPTVFI | 1.27
88 | FAQADALKVTLVSTLKEVKPTVFI | 2.61
89 | FAQADALKSTLVSTLKEVKPTVFI | 2.84
90 | KAQADALKGTLVSTLKEVKPTVFI | 2.25
91 | WAQADALKGTLVSTLKEVKPTVFI | 1.46
92 | NAQADALKGTLVSTLKEVKPTVFI | 2.59
93 | HAQADALKGTLVSTLKEVKPTVFI | 1.98
94 | AAQADALKGTLVSTLKEVKPTVFI | 2.26
95 | QAQADALKGTLVSTLKEVKPTVFI | 3.73
96 | YAQADALKGTLVSTLKEVKPTVFI | 1.96

Row | Variant | protein stability index
97 | VAQADALKGTLVSTLKEVKPTVFI | 1.54
98 | TAQADALKGTLVSTLKEVKPTVFI | 2.33
99 | RAQADALKGTLVSTLKEVKPTVFI | 1.83
100 | LAQADALKGTLVSTLKEVKPTVFI | 2
101 | SAQADALKGTLVSTLKEVKPTVFI | 2
102 | PAQADALKGTLVSTLKEVKPTVFI | 2.31
103 | GAQADALKGTLVSTLKEVKPTVFI | 2.46
104 | DAQADALKGTLVSTLKEVKPTVFI | 2.43
105 | EAQADALKGTLVSTLKEVKPTVFI | 3.21
106 | MAQADALKGTLVSTLKEVKPTVFI | 2.14
107 | IAQADALKGTLVSTLKEVKPTVFI | 2.25
108 | CAQADALKGTLVSTLKEVKPTVFI | 1.3
109 | FAQADALKGTCVSTLKEVKPTVFI | 1.72
110 | FAQADALKGTGVSTLKEVKPTVFI | 1.51
111 | FAQADALKGTEVSTLKEVKPTVFI | 2.88
112 | FAQADALKGTSVSTLKEVKPTVFI | 1.61
113 | FAQADALKGTAVSTLKEVKPTVFI | 1.88
114 | FAQADALKGTPVSTLKEVKPTVFI | 1.84
115 | FAQADALKGTHVSTLKEVKPTVFI | 1.72
116 | FAQADALKGTQVSTLKEVKPTVFI | 2.88
117 | FAQADALKGTRVSTLKEVKPTVFI | 2.13
118 | FAQADALKGTKVSTLKEVKPTVFI | 1.67
119 | FAQADALKGTMVSTLKEVKPTVFI | 2.41
120 | FAQADALKGTNVSTLKEVKPTVFI | 2.1

Row | Variant | protein stability index
121 | FAQADALKGTDVSTLKEVKPTVFI | 2.02
122 | FAQADALKGTIVSTLKEVKPTVFI | 2.55
123 | FAQADALKGTFVSTLKEVKPTVFI | 1.7
124 | FAQAIALKGTLVSTLKEVKPTVFI | 2.7
125 | FAQANALKGTLVSTLKEVKPTVFI | 1.9
126 | FAQACALKGTLVSTLKEVKPTVFI | 1.35
127 | FAQASALKGTLVSTLKEVKPTVFI | 2.67
128 | FAQARALKGTLVSTLKEVKPTVFI | 1.55
129 | FAQAFALKGTLVSTLKEVKPTVFI | 3.26
130 | FAQAAALKGTLVSTLKEVKPTVFI | 3.35
131 | FAQAKALKGTLVSTLKEVKPTVFI | 1.69
132 | FAQAQALKGTLVSTLKEVKPTVFI | 2.4
133 | FAQAHALKGTLVSTLKEVKPTVFI | 1.3
134 | FAQATALKGTLVSTLKEVKPTVFI | 2.12
135 | FAQAEALKGTLVSTLKEVKPTVFI | 1.26
136 | FAQAYALKGTLVSTLKEVKPTVFI | 1.44
137 | FAQAPALKGTLVSTLKEVKPTVFI | 1.9
138 | FAQAVALKGTLVSTLKEVKPTVFI | 2.08
139 | FAQAMALKGTLVSTLKEVKPTVFI | 2.98
140 | FAQADALGGTLVSTLKEVKPTVFI | 2.31
141 | FAQADALRGTLVSTLKEVKPTVFI | 1.8
142 | FAQADALPGTLVSTLKEVKPTVFI | 1.4
143 | FAQADALNGTLVSTLKEVKPTVFI | 1.59
144 | FAQADALEGTLVSTLKEVKPTVFI | 1.41

Row | Variant | protein stability index
145 | FAQADALFGTLVSTLKEVKPTVFI | 2.34
146 | FAQADALAGTLVSTLKEVKPTVFI | 2.12
147 | FAQADALCGTLVSTLKEVKPTVFI | 1.85
148 | FAQADALQGTLVSTLKEVKPTVFI | 2.39
149 | FAQADALMGTLVSTLKEVKPTVFI | 1.22
150 | FAQADALSGTLVSTLKEVKPTVFI | 1.71
151 | FAQADALHGTLVSTLKEVKPTVFI | 2.74
152 | FAQADALDGTLVSTLKEVKPTVFI | 1.9
153 | FAQADALTGTLVSTLKEVKPTVFI | 3.3
154 | FAQADALYGTLVSTLKEVKPTVFI | 3
155 | FAQEDALKGTLVSTLKEVKPTVFI | 2.77
156 | FAQMDALKGTLVSTLKEVKPTVFI | 2.05
157 | FAQGDALKGTLVSTLKEVKPTVFI | 2.44
158 | FAQCDALKGTLVSTLKEVKPTVFI | 2.52
159 | FAQQDALKGTLVSTLKEVKPTVFI | 1.44
160 | FAQRDALKGTLVSTLKEVKPTVFI | 2.19
161 | FAQFDALKGTLVSTLKEVKPTVFI | 2.18
162 | FAQNDALKGTLVSTLKEVKPTVFI | 2.14
163 | FAQSDALKGTLVSTLKEVKPTVFI | 1.69
164 | FAQPDALKGTLVSTLKEVKPTVFI | 3.08
165 | FAQYDALKGTLVSTLKEVKPTVFI | 1.52
166 | FAQHDALKGTLVSTLKEVKPTVFI | 2.31
167 | FAQKDALKGTLVSTLKEVKPTVFI | 2.03
168 | FAQVDALKGTLVSTLKEVKPTVFI | 1.48

Row | Variant | protein stability index
169 | FAQTDALKGTLVSTLKEVKPTVFI | 1.94
170 | FAQIDALKGTLVSTLKEVKPTVFI | 1.66
171 | FAQLDALKGTLVSTLKEVKPTVFI | 1.69
172 | FAQDDALKGTLVSTLKEVKPTVFI | 2.74
173 | FRQADALKGTLVSTLKEVKPTVFI | 1.42
174 | FCQADALKGTLVSTLKEVKPTVFI | 1.85
175 | FGQADALKGTLVSTLKEVKPTVFI | 2.13
176 | FEQADALKGTLVSTLKEVKPTVFI | 2.05
177 | FMQADALKGTLVSTLKEVKPTVFI | 1.79
178 | FHQADALKGTLVSTLKEVKPTVFI | 2.08
179 | FNQADALKGTLVSTLKEVKPTVFI | 1.45
180 | FLQADALKGTLVSTLKEVKPTVFI | 2.46
181 | FPQADALKGTLVSTLKEVKPTVFI | 1.48
182 | FFQADALKGTLVSTLKEVKPTVFI | 2.79
183 | FQQADALKGTLVSTLKEVKPTVFI | 1.64
184 | FSQADALKGTLVSTLKEVKPTVFI | 1.76
185 | FTQADALKGTLVSTLKEVKPTVFI | 1.56
186 | FDQADALKGTLVSTLKEVKPTVFI | 2.11
187 | FIQADALKGTLVSTLKEVKPTVFI | 1.22
188 | FKQADALKGTLVSTLKEVKPTVFI | 2.49
